Experimental data taken from paper PMC11487556.

How the values were obtained:
[1] = target: β1 adrenergic receptor with an intact ICL3 (M. gallopavo β114E130WIC3) (M. gallopavo) (UniProt P07700)
[2] = target: truncated β1 adrenergic receptor (M. gallopavo β114-E130W, without an intact ICL3) (M. gallopavo) (UniProt P07700)

GDP release (decay of BODIPY FL GDP fluorescence) after addition of isoprenaline, 20 °C [1]: 60 s
GDP release (decay of BODIPY FL GDP fluorescence) after addition of isoprenaline, 20 °C [2]: 60 s
Substance: mini Gs (engineered GTPase domain of the Gαs protein), construct R414, I208A (domain or fragment)
